The labels stand for the following.
B2: UL16 ectodomain, monomeric, untagged (domain or fragment)
chain: VDLGSKSSNSTCRLNVTELASIHPGETWTLHGMCISICYYENVTEDEIIGVAFTWQHNESVVDLWLYQNDTVIRNFSDITTNILQDGLKMRTVPVTKLYTSRMVTNLTVGRYDCLRCENGTTKIIERLYVRLGSLYPRPPGSGLAKHPSVSADEELSA
modifications: N-linked glycans; N-acetylglucosamine seen at asparagines 35, 41, 68, 84, 95, 101 and 132 in the crystal (after EndoH)
notes: UL16 of human cytomegalovirus, ectodomain residues 27-184; the cDNA construct also held the N-terminal signal peptide (residues 1-26), then a thrombin cleavage site and human IgG1-Fc; Residues of the thrombin site may remain at the C-terminus after cleavage; For the crystal the complex was partly deglycosylated with EndoH after complex formation; for SPR the glycosylated protein was used; also …

For assay [1], the target named is B2. Briefly: SPR; MICBpf or MICB α1-α3 covalently immobilised on a CM5 chip by amine coupling; untagged monomeric UL16 as analyte, 50 µl/min; kinetic fit (1:1 binding with mass transfer) and equilibrium fit (1:1 Langmuir isotherm); chip not regenerated. The following applies: both partners purified.
The target of the next assay is T1, Fc-tagged ULBP2 (human, UniProt Q9BZM5 26-217).
T1 construct: ULBP2 (RAET1H), human NKG2D ligand; Captured by its Fc on a Protein A-G chip; also called RAET1H; source: bought: R&D Systems
T1 sequence: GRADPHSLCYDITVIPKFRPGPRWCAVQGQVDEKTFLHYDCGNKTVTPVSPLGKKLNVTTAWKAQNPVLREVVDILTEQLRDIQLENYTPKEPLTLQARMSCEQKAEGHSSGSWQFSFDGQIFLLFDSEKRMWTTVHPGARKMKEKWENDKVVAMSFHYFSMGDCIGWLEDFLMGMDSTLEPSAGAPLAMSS
The experiment in a line: SPR; Fc-tagged ULBP ligands captured on a Protein A-G CM5 chip, diluted in HBS-EP pH 7.4 at 25°C; untagged monomeric UL16 as analyte, 50 µl/min; regeneration with 10 mM glycine pH 1.7. The following applies: both partners purified.

The next assay has as its target T2, Fc-tagged ULBP1 (human, UniProt Q9BZM6 26-216).
T2 construct: ULBP1 (RAET1I), human NKG2D ligand; Captured by its Fc on a Protein A-G chip; also called RAET1I; source: bought: R&D Systems
T2 sequence: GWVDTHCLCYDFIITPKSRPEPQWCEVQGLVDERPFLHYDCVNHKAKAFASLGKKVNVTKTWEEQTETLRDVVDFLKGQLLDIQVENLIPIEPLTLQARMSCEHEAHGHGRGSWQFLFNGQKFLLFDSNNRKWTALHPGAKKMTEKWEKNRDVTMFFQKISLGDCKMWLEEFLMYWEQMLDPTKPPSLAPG
The assay is described as above. The following applies: both partners purified.

The target of assay [2] is T3, MICB*02 ectodomain (domains α1, α2 and α3) (human, UniProt Q29980 23-298).
T3 construct: also called complete MICB ectodomain; MICBα1α3
T3 sequence: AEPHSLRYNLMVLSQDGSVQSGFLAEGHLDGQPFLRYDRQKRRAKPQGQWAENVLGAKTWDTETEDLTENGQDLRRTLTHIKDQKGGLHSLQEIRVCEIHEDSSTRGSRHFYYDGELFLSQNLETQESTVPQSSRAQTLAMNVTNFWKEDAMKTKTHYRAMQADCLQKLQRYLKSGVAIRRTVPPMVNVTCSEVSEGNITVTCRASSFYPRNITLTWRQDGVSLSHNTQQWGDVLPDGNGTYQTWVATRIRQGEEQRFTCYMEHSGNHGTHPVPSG
Briefly: SPR; MICBpf or MICB α1-α3 covalently immobilised on a CM5 chip by amine coupling; untagged monomeric UL16 as analyte, 50 µl/min; kinetic fit (1:1 binding with mass transfer) and equilibrium fit (1:1 Langmuir isotherm); chip not regenerated. Conditions: both partners purified. (In general: SPR reads the build-up and loss of mass on a sensor chip optically.)

Assay [3] addresses T4, MICB*02 ectodomain (domains α1, α2 and α3) (human, UniProt Q29980 23-298).
T4 chain: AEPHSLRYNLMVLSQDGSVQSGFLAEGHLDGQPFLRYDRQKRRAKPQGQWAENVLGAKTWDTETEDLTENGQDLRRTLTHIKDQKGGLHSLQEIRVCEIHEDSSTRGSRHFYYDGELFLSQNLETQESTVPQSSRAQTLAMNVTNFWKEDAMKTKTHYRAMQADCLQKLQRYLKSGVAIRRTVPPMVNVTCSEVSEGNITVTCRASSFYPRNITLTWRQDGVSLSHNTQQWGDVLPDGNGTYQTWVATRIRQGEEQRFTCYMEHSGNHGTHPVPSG
Briefly: SPR; kinetic fit.

Assay [4] addresses T5, MICB*02 α1α2-platform domain (MICBpf) (human).
T5 chain: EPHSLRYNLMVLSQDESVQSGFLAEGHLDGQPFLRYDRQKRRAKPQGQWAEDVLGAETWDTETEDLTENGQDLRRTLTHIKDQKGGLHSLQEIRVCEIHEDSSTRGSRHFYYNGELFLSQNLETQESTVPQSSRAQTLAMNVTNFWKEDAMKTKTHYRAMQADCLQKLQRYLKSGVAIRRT
The experiment in a line: SPR; kinetic fit.

B1: MICB*02 α1α2-platform domain (MICBpf) (domain or fragment)
chain: EPHSLRYNLMVLSQDESVQSGFLAEGHLDGQPFLRYDRQKRRAKPQGQWAEDVLGAETWDTETEDLTENGQDLRRTLTHIKDQKGGLHSLQEIRVCEIHEDSSTRGSRHFYYNGELFLSQNLETQESTVPQSSRAQTLAMNVTNFWKEDAMKTKTHYRAMQADCLQKLQRYLKSGVAIRRT
B1 registered an equilibrium dissociation constant (Kd) in assay [1] of 66 nM.

B2: in the assay with Fc-tagged ULBP2, the binding result is “binds”. In addition, the Kd with Fc-tagged ULBP1 turned out to be 12 nM; in assay [2], 67 nM. Moreover, the figures for the koff in assay [3] and in assay [4] were 0.045 s⁻¹ and 0.054 s⁻¹, respectively.

Broadly, the Kd is the constant that tells how readily two partners part at equilibrium. A lower Kd goes with tighter binding. What is called koff is a measure of how fast the partners let go of each other. The low end stands for a long-lived complex, the high end for a short-lived complex.

Source of the values: article PMC2797645, “Structure of the HCMV UL16-MICB Complex Elucidates Select Binding of a Viral Immunoevasin to Diverse NKG2D Ligands” (PLoS Pathogens, 2010).
